Laboratory results as given in patent publication US20230140868A1, “COMPOSITIONS AND METHODS FOR TREATING CANCER” (Alpha Beta Holdings, LLC, priority 2020, published 2023).

What was measured:
[1] = system: HCC827 αvβ3-negative human EGFR mutant lung cancer cells; test: HCC827 xenograft, delay of onset of erlotinib resistance; assay type: in vivo, nu/nu mice; conditions: erlotinib alone, oral, 6.25 mg/kg, six times/week
Procedure: Briefly, HCC827 (5×10^6 tumor cells in 100 μl of PBS) αvβ3-negative human EGFR mutant lung cancer cells were subcutaneously injected to the right flank of female nu/nu mice (Charles River, 088, 8-10 weeks old). Tumors were measured with calipers twice per week. […] Tumors were placed into liquid nitrogen, OCT compound, or 10% formalin.

[2] = target: integrin β1 (Homo sapiens, UniProt P05556); test: In vitro cell adhesion assay on type I collagen (FIG. 8); assay type: cell-based; set-up: endogenous in cells; conditions: 2-fold dilutions starting at 5 μg/mL
integrin β1, sequence (P05556 21-798): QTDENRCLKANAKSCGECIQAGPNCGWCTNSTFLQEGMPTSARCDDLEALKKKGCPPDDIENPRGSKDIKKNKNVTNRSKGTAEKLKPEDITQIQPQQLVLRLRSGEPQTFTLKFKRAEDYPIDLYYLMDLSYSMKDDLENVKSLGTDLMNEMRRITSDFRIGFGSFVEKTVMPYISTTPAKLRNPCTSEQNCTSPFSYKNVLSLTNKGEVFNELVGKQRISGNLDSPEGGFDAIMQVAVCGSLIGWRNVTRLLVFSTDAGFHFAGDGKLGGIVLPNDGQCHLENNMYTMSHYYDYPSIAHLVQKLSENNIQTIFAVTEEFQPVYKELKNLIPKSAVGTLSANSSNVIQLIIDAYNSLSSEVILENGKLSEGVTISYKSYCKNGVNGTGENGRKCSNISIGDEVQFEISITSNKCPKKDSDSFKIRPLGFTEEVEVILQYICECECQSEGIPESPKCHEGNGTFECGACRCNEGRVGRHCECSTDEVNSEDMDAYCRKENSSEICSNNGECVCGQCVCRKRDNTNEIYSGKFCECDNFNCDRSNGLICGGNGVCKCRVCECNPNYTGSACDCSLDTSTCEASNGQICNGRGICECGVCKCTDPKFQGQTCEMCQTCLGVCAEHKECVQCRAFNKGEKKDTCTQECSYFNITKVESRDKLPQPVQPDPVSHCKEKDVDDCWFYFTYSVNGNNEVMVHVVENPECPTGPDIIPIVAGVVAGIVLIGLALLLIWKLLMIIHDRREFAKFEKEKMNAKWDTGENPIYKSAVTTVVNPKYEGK
Procedure: (§1) Antibody affinity is evaluated using an in vitro cell adhesion assay. 48 well tissue culture plates were coated with the integrin avβ3 ligand fibrinogen or the integrin β1 ligand type I collagen, and 2000-10000 cells were added in the presence of each antibody for a range of 2-fold dilutions starting at 5 μg/mL in duplicate. Plates were washed at the endpoint and cells attached to the substrate detected using crystal violet.
(§2) Each antibody was tested for its ability to prevent the adhesion of integrin αvβ3-expressing tumor cells to the αvβ3-mediated adhesion to fibrinogen as well as the β1-integrin mediated adhesion to type I collagen.

[3] = system: αvβ3-expressing human lung cancer cells; test: In vitro ADCC, human NK cells as effector cells (FIG. 10B); assay type: cell-based; conditions: increasing E:T
Description: (A) In vitro ADCC for primary human monocyte-derived macrophages as effector cells. (B). In vitro ADCC for human NK cells as effector cells. Graphs show effect of increasing effector-to-target ratio (E:T) on death of αvβ3-expressing human lung cancer cells.
This distinction could produce a therapeutic advantage by achieving matching between the antigen (integrin αvβ3) and the types of effector cells that are particularly enriched in αvβ3-expressing tumors, such as macrophages.

[4] = system: human FcγRIII; test: Promega ADCC Reporter Bioassay, FcγRIII (FIG. 7); assay type: cell-based; conditions: target cells: integrin avβ3-expressing human pancreatic cancer cells; Raji effector line with NFAT-induced luciferase
Procedure: (§3) Integrin avβ3-expressing human pancreatic cancer cells were utilized as “target cells” to assess the ability of anti-avβ3 antibodies to elicit effector cell activation using a Promega ADCC Reporter Bioassay in which “effector cell” activation is evaluated using a Raji cell line stably expressing the human FcγR I or III and NFAT-induced luciferase. Six antibody dilutions were tested per antibody, with FcγR activation shown as fold change relative to treatment with assay buffer containing no antibody.
(§4) Whereas NK cells utilize only FcγRIII/CD16 to engage antibody Fc regions, macrophages can utilize FcγRI/CD64.

[5] = target: integrin αvβ3 (Homo sapiens, UniProt P05106+P06756); test: In vitro cell adhesion assay on fibrinogen (FIG. 8); assay type: cell-based
integrin αvβ3, sequence (P06756 31-889 limits assumed): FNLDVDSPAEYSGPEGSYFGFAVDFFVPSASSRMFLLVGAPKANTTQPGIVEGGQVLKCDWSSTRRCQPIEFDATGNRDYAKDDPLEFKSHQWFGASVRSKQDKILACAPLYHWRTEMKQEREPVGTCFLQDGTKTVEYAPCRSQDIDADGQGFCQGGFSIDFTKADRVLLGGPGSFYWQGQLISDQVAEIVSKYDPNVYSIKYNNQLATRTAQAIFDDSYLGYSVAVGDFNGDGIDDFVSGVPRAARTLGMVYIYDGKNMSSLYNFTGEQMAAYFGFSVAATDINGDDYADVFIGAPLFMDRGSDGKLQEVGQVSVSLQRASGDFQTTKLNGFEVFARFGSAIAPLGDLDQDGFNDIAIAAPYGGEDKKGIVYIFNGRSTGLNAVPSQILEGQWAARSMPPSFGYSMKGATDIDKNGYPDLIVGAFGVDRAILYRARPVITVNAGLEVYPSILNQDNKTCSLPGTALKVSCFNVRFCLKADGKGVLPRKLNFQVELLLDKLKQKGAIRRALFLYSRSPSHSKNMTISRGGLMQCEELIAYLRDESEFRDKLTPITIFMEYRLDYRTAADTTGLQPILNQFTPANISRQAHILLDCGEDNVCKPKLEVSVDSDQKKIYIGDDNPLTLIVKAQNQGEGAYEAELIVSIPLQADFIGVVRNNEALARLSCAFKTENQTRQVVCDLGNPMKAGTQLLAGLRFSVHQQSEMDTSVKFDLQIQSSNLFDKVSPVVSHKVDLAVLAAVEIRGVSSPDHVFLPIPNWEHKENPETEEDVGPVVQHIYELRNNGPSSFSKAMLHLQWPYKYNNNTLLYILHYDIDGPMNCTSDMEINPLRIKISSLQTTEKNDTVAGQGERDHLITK
integrin αvβ3, sequence (P06756 891-1048 limits assumed): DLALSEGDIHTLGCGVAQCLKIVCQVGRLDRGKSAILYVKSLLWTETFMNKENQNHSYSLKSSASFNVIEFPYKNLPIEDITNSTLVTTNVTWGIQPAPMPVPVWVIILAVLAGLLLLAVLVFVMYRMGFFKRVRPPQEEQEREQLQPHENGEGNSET
integrin αvβ3, sequence (P05106 27-788): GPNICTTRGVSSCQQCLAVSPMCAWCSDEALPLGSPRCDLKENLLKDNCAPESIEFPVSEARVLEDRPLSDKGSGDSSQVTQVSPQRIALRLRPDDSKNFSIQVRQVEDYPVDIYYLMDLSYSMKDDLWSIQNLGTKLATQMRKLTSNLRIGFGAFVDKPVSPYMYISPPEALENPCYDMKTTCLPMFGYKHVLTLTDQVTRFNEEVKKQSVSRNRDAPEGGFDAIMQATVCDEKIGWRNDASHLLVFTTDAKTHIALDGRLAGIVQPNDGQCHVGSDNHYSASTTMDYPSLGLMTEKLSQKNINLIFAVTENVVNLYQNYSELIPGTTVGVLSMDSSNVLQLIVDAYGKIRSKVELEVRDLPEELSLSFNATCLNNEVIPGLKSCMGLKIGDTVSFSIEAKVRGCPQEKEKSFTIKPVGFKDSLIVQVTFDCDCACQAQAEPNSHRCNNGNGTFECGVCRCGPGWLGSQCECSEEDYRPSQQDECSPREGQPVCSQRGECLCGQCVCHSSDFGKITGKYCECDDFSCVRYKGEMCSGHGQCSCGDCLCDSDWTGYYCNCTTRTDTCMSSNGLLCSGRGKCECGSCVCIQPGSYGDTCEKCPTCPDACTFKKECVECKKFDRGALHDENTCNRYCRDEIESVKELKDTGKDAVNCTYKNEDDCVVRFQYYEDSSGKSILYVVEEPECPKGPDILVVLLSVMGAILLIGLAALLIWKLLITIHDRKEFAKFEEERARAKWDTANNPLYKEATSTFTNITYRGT
Procedure: as §1, §2

[6] = target: T1, human FcγRI (Homo sapiens, UniProt P12314); test: Promega ADCC Reporter Bioassay, FcγRI (FIG. 7); assay type: cell-based; conditions: target cells: integrin avβ3-expressing human pancreatic cancer cells; Raji effector line with NFAT-induced luciferase
T1 construct: host or cells: Raji cell line (so in the source), stably expressing the receptor and NFAT-induced luciferase
T1 sequence (P12314 16-374): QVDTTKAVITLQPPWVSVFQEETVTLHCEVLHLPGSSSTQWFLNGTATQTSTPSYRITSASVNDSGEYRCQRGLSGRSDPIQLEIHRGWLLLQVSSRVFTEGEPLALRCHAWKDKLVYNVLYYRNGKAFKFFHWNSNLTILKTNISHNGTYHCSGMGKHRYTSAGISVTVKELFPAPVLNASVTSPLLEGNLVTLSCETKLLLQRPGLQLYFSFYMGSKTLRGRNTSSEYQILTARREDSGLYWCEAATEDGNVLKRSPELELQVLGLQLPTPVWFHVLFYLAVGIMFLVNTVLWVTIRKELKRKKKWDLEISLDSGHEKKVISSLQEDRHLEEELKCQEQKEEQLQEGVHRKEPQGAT
Procedure: as §3, §4

αvβ3-mediated adhesion to fibrinogen ([5]; 2-fold dilutions starting at 5 μg/mL) | antibody affinity, shown by ability to block αvβ3-dependent cell adhesion ([5]; comparison of isotype variants) | FcγRI activation on effector cells [6] | Compound | tumor size [1] | β1-integrin mediated adhesion to type I collagen [2] | ADCC with human NK cells as effector cells [3] | FcγRIII activation on effector cells [4]
– | – | – | C#Cc1cccc(Nc2ncnc3cc(OCCOC)c(OCCOC)cc23)c1 [erlotinib] | initial reduction in tumor size, this is followed by an eventual tumor re-growth | – | – | –
blocked adhesion to fibrinogen | equivalent | lower levels of engagement | hLM609-hIgG1: humanized LM609, hIgG1 isotype (etaracizumab/Vitaxin); heavy chain SEQ ID NO:9, light chain SEQ ID NO:10 [reference compound] | – | without disrupting β1-mediated adhesion to collagen | engages NK cells | can strongly activate FcγRIII
